Source: article PMC9536601

What was measured:
[1] = target: chimeric hexon of Ad5:H1.6 (Ad5 vector, hexon residues 112-593 from Ad1 hexon, HVR7 IGVTDRY), on the virion (human adenovirus type 5 | human adenovirus type 1) (UniProt P04133); test: SPR; Biacore T200; about 300 to 5,000 RU of Ad virions immobilised on a CM5 chip, coagulation factors flowed over at four concentrations, 50 uL/min; 10 mM HEPES, 150 mM NaCl, 1 mM CaCl2, 0.5 mM MgCl2, 0.1% BSA, 0.05% polysorbate 20, pH 7.4; global fit to a 1:1 kinetic interaction model, double referencing
[2] = target: chimeric hexon of Ad5:H6.2 (Ad5 vector, hexon residues 112-593 from Ad6 hexon, HVR7 IGNTDTF), on the virion (human adenovirus type 5 | human adenovirus type 6) (UniProt P04133); test: as above

“mouse coagulation factor X (from UniProt O88947 41-481) (natural protein)” was tested, and the Kd [1] was 4.2 µM and the Kd [2] was 0.681 µM.

With “mouse prothrombin (coagulation factor II) (from UniProt P19221 44-618) (natural protein)” the Kd [2] was 0.56 µM.
